This note sets out measurements from article PMC9278863, “The two-domain elevator-type mechanism of zinc-transporting ZIP proteins” (Science Advances, 2022).

This series concerns the molecule itself. The series is described as follows: crystal structure; metal-free BbZIP crystallised in lipidic cubic phase (monoolein), 100 mM NaOAc-HOAc pH 4.5, LiSO4, PEG400, 20°C; two molecules in the asymmetric unit; parallel dimers seen in the crystal packing.

B1: ZIP from Bordetella bronchiseptica (BbZIP), wild type (natural protein, UniProt A0A0H3LM39 1-309, looked up)
chain: MNQPSSLAADLRGAWHAQAQSHPLITLGLAASAAGVVLLLVAGIVNALTGENRVHVGYAVLGGAAGFAATALGALMALGLRAISARTQDAMLGFAAGMMLAASAFSLILPGLDAAGTIVGPGPAAAAVVALGLGLGVLLMLGLDYFTPHEHERTGHQGPEAARVNRVWLFVLTIILHNLPEGMAIGVSFATGDLRIGLPLTSAIAIQDVPEGLAVALALRAVGLPIGRAVLVAVASGLMEPLGALVGVGISSGFALAYPISMGLAAGAMIFVVSHEVIPETHRNGHETTATVGLMAGFALMMFLDTALG
notes: density seen for residues 21-145, 165-279, 285-309 (chain A) and 18-77, 84-145, 166-219, 225-307 (chain B) of the metal-free structure; also called Zrt/Irt-like protein; WT; source: E. coli C43(DE3), purified (DDM solubilisation, HisTrap IMAC, SEC)
For B1, the binding result is on record as “binds”.
